The values that follow are results of earlier work, collected in paper PMC6767322.

This series addresses IL-2Rβ/γc (Homo sapiens) (UniProt P14784).
Chain of UniProt P14784 (P14784 27-240, chain 1 of 2): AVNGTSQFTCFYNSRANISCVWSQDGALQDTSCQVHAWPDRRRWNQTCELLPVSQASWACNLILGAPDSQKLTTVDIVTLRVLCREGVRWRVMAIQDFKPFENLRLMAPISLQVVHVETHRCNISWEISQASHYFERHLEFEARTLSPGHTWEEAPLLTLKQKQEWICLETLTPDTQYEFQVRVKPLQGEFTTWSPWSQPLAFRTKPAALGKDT
Chain of UniProt P14784 (P31785 23-262, chain 2 of 2, further chain): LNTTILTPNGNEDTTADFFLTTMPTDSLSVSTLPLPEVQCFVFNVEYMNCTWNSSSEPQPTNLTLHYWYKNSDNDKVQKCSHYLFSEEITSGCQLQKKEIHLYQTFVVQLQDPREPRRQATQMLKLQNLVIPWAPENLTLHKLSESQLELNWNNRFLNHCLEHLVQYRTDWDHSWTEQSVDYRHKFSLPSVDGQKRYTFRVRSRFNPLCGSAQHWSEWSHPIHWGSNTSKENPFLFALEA

In general, Kd refers to the free concentration of one partner at which half of the binding sites on the other are occupied at equilibrium, for simple one-to-one binding. Turning to IL-15 (from UniProt P40933), the Kd was 30 nM.
